In PMC2880861 (New journal of chemistry = Nouveau journal de chimie, 2010):

Experiments:
in vitro = conditions: male, Sprague Dawley, rat, tissue homogenate
[1] = target: soluble fibrin fragment DD(E); experiment: DD; conditions: read-out: Ki, inhibition of binding of a fluorescent peptide to DD(E); TBS·Ca; DD(E) 1.5 μM, Fl 1 μM; uncertainties estimated at ±10%
[2] = rat, tissue homogenate
arterial thrombosis = conditions: guinea pig; cited from earlier work
[3] = Variable temperature NMRD and O-17 NMR relaxation in TBS; format: physicochemical
gelled human fibrin = target: T1, gelled human fibrin (Homo sapiens, UniProt P02671+P02675+P02679); experiment: Relaxivity / variable temperature NMRD in fibrin gel; format: physicochemical
T1 sequence (P02671 20-644 isoform P02671-2 limits assumed): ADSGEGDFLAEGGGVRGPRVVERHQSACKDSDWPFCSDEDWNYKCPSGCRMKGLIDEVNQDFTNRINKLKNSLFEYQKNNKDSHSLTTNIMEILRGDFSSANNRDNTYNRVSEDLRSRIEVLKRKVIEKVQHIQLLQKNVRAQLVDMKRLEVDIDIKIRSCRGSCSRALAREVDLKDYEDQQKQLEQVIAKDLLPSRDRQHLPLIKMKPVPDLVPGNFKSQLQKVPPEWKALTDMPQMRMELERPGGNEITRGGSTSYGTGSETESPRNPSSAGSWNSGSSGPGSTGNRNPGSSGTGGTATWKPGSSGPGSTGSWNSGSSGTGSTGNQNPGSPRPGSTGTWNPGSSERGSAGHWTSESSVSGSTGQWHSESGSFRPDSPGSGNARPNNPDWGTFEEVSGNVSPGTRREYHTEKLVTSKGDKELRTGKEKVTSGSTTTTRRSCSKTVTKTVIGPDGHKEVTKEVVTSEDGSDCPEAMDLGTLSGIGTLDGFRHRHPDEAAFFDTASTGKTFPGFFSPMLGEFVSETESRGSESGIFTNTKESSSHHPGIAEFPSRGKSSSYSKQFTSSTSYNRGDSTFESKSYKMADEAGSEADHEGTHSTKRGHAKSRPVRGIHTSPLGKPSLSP
T1 sequence (P02675 45-491 limits assumed): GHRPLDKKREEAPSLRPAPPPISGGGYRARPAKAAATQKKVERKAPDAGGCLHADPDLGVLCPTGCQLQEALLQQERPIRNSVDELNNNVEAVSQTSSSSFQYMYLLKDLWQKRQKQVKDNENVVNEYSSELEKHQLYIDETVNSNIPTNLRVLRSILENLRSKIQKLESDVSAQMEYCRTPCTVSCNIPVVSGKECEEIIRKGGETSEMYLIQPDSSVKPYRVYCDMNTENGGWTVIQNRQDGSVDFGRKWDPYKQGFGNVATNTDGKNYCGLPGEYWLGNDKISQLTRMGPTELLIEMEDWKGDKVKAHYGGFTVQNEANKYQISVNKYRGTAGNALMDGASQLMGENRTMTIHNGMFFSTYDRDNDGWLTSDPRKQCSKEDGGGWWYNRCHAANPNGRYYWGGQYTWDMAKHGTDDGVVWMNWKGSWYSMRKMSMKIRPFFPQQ
T1 sequence (P02679 27-437 isoform P02679-2 limits assumed): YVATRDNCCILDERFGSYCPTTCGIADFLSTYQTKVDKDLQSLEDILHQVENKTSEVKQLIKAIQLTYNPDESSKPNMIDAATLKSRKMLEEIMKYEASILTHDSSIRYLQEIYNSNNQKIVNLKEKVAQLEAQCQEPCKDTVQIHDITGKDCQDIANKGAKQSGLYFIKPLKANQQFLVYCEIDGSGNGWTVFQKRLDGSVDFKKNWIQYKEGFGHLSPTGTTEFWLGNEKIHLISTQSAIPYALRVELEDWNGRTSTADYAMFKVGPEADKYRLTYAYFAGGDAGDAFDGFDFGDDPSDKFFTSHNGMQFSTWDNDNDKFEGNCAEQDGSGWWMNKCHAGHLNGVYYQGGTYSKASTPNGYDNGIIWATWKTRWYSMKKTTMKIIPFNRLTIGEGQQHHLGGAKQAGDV

human fibrinogen = target: T2, human fibrinogen (Homo sapiens, UniProt P02671+P02675+P02679); experiment: NMRD relaxivity in human fibrinogen/TBS solution; format: physicochemical; conditions: 30 μM human fibrinogen/TBS, 35 °C
T2 sequence (P02671 20-629 limits assumed): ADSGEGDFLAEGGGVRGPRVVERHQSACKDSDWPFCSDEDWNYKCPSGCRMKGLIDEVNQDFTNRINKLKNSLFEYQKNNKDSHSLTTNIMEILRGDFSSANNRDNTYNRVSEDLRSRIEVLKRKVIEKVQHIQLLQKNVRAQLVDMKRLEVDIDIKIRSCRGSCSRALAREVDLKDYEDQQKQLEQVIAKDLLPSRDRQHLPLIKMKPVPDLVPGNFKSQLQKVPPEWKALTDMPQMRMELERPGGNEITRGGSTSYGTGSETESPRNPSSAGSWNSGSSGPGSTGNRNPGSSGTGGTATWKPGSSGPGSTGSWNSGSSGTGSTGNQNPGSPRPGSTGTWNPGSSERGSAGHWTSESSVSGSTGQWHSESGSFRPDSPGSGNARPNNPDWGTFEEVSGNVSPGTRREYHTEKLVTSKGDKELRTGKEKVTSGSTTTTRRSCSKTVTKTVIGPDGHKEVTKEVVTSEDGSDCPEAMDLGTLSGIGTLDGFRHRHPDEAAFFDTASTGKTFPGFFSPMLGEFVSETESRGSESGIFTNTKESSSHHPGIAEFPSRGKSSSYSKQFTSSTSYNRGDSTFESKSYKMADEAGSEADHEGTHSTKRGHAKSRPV
T2 sequence (P02675 31-491): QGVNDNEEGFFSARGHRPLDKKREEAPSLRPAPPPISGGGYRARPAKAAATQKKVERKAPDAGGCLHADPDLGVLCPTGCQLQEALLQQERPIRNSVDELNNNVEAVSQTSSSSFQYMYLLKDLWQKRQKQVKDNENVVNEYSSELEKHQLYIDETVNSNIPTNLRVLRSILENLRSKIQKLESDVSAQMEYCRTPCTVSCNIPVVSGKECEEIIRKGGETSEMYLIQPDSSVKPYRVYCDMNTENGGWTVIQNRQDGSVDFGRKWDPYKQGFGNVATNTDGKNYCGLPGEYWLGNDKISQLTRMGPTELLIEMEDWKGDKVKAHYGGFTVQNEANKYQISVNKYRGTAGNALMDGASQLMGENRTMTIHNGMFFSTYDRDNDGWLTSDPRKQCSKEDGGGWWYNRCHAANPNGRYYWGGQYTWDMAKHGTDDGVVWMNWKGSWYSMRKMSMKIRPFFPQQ
T2 sequence (P02679 27-433 limits assumed): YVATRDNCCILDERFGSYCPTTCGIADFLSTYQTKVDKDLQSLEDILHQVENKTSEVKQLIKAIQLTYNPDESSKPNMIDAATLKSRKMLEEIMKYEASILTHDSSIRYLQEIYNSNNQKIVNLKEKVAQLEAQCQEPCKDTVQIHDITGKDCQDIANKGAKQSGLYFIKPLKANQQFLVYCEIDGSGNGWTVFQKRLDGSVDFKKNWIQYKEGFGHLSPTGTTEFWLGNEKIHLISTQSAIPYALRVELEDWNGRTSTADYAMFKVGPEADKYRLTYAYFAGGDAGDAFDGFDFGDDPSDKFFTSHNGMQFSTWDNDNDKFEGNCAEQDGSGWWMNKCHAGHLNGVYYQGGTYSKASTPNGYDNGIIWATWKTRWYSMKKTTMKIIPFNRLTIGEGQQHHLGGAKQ

CC(C)C[C@H](NC(=O)[C@@H]1CSSC[C@H](NC(=O)[C@@H]2CCCN2C(=O)[C@H](CC(C)C)NC(=O)[C@H](CNC(=O)C(CN(CCN(CC(=O)O)CC(=O)O)CC(=O)O)N(CC(=O)O)CC(=O)O)NC(=O)C(CN(CCN(CC(=O)O)CC(=O)O)CC(=O)O)N(CC(=O)O)CC(=O)O)C(=O)N[C@@H](CC(=O)O)C(=O)N[C@@H](Cc2ccc(O)cc2)C(=O)N[C@@H](Cc2ccc(O)cc2)C(=O)NCC(=O)N[C@@H]([C@@H](C)O)C(=O)N1)C(=O)N[C@@H](CC(=O)O)C(=O)NCc1ccc(CNC(=O)[C@H](CNC(=O)C(CN(CCN(CC(=O)O)CC(=O)O)CC(=O)O)N(CC(=O)O)CC(=O)O)NC(=O)C(CN(CCN(CC(=O)O)CC(=O)O)CC(=O)O)N(CC(=O)O)CC(=O)O)cc1 (some centres unmarked) [Compound 4]
half-life at 100 µM (in vitro): 1.09 h
Ki [1]: 12 µM
fold increase in metabolic stability [2]: 6 to 7 fold

CC(C)C[C@H](NC(=O)CN(CCNC(=O)C(CN(CCN(CC(=O)O)CC(=O)O)CC(=O)O)N(CC(=O)O)CC(=O)O)CCNC(=O)C(CN(CCN(CC(=O)O)CC(=O)O)CC(=O)O)N(CC(=O)O)CC(=O)O)C(=O)N1CCC[C@H]1C(=O)N[C@H]1CSSC[C@@H](C(=O)N[C@@H](Cc2ccc(-c3ccccc3)cc2)C(=O)N[C@@H](CC(=O)O)C(=O)NCc2cccc(CNC(=O)CN(CCNC(=O)C(CN(CCN(CC(=O)O)CC(=O)O)CC(=O)O)N(CC(=O)O)CC(=O)O)CCNC(=O)C(CN(CCN(CC(=O)O)CC(=O)O)CC(=O)O)N(CC(=O)O)CC(=O)O)c2)NC(=O)[C@H]([C@@H](C)O)NC(=O)CNC(=O)[C@H](Cc2ccc(O)cc2)NC(=O)[C@H](Cc2ccc(O)cc2)NC(=O)[C@H](CC(=O)O)NC1=O (some centres unmarked) [Compound 5]
efficacy in arterial thrombosis model (arterial thrombosis): showed efficacy
ΔER^‡ (temperature dependence of τR) [3]: 5.95 ± 0.096 kcal/mol
ΔH^‡ (temperature dependence of τm) [3]: 10.9 ± 0.335 kcal/mol
Δ^2 ×10^−18 [3]: 10.2 ±0.5 s^2
τm^37 ([3]; 37 °C): 124±9 ns
τv^37 ([3]; 37 °C): 18.0 ±1.7 ps
τR^37 ([3]; 37 °C, isotropic model of rotation): 389±4 ps
F^2 ([3]; dimensionless): 1
ΔEl^‡ (temperature dependence of τloc) (gelled human fibrin; 30 μM fibrin gel (FBN)): 7.17 ± 0.48 kcal/mol
τloc^37 (gelled human fibrin; 30 μM fibrin gel (FBN), 37 °C): 720±20 ps
τR^37 (global) (gelled human fibrin; 30 μM fibrin gel (FBN), Lipari-Szabo model): >20,000 (NA) ps
F^2 (gelled human fibrin; 30 μM fibrin gel (FBN), dimensionless order parameter): 0.08 ±0.02
fraction bound to fibrin (gelled human fibrin; 50 μM 5 in 30 μM fibrin gel, based on the measured binding constant): 81%
relaxivity per Gd (gelled human fibrin; bound to fibrin at 1.5T): 18 mM⁻¹ s⁻¹
relaxivity per molecule (gelled human fibrin; bound to fibrin at 1.5T): 72 mM⁻¹ s⁻¹
global τR (gelled human fibrin; fibrin-bound, best fits): > 20 ns
binding to fibrinogen (from relaxivity enhancement) (human fibrinogen): does not bind/binds weakly to fibrinogen
